According to US20210002644, “ANTI-CHYMASE APTAMER AND USE FOR SAME” (RIBOMIC INC., published 2021):

T1: chymase (native, human skin mast cell) (Homo sapiens, UniProt P23946 P23946:22-247)
T1 sequence: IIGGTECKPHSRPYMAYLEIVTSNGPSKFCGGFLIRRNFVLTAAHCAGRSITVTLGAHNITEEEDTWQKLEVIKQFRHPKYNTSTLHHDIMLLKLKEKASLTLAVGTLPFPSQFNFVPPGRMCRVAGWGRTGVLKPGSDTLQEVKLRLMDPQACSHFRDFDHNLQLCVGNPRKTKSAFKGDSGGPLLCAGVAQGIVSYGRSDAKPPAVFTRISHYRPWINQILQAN


Assays:
[1] = biological target: T1, chymase (native, human skin mast cell); assay: inhibition; angiotensin I substrate; 40 kDa PEG; details: tags: Calbiochem Human Skin
Procedure: The total volume of solution for an enzyme reaction in the assay was set to 50 μL, and the reaction was performed in solution C buffer. At first, native (manufactured by Calbiochem) was diluted with solution C to give 5 μL thereof. Here, the native is chymase purified from human skin mast cell. The nucleic acid was serially diluted with solution C at a concentration of 0.0027-2 μM to give 25 μL thereof. The chymase solution (5 μL) and the nucleic acid solution (25 μL) were mixed, and the mixture was incubated at 37° C. for 5 min. On the other hand, […] angiotensin I (manufactured by PEPTIDE […], INC.) was prepared in solution C to give 20 μL thereof, which was incubated at 37° C. for 5 min. […] The whole mixture was centrifuged at 4° C., 14000 rpm for 10 min, and the supernatant (30 μL) was used for the next fluorescence induction reaction.
The above-mentioned supernatant (30 μL) was added to a 96 well plate (black, manufactured by Costar), a solution (15 μL) of 2% o-phthalaldehyde (manufactured by SIGMA) in methanol and 0.3M NaOH solution (170 μL) were added to each well, and the mixture was incubated at room temperature for 10 min. […] The plate was set on a microplate reader SpectraMax190 (manufactured by Molecular device) and the fluorescence intensity was measured at an excitation wavelength of 355 nm and a fluorescence wavelength of 460 nm. […]

[2] = biological target: T1, chymase (native, human skin mast cell); assay: inhibition; angiotensin I substrate, 37 C, 1.8 mM Ca, 0.8 mM Mg, pH 7.6; details: tags: Calbiochem Human Skin
Procedure: Whether the nucleic acids shown by SEQ ID NO: 9 and 10 inhibit the enzyme activity of chymase was determined by the following method. Angiotensin I is converted by chymase to angiotensin II, during which a peptide fragment His-Leu is released. Since the peptide His-Leu is fluorescently derivatized by o-phthalaldehyde, its fluorescence intensity can be quantitatively measured.
The total volume of solution for an enzyme reaction in the assay was set to 50 μL, and the reaction was performed in solution C buffer. At first, native (manufactured by Calbiochem) was diluted with solution C to give 5 μL thereof. Here, the native is chymase purified from human skin mast cell. […] The whole mixture was centrifuged at 4° C., 14000 rpm for 10 min, and the supernatant (30 μL) was used for the next fluorescence induction reaction.
The above-mentioned supernatant (30 μL) was added to a 96 well plate (black, manufactured by Costar), a solution (15 μL) of 2% o-phthalaldehyde (manufactured by SIGMA) in methanol and 0.3M NaOH solution (170 μL) were added to each well, and the mixture was incubated at room temperature for 10 min. […] The plate was set on a microplate reader SpectraMax190 (manufactured by Molecular device) and the fluorescence intensity was measured at an excitation wavelength of 355 nm and a fluorescence wavelength of 460 nm.

Binder | IC50 [1] [nM] | IC50 [2] [nM]
AUGAUCGGACAUAACUAAUUAGGGGUGUCAA (mixed, PEG-A(M)U(M)G(M)A(M)U(F)C(F)G(M)G(M)A(M)C(M)A(M)U(M)AAC(M)U(F)A(M)A(M)U(M)TA(M)G(M)GG(M)G(M)TG(M)U(M)C(M)A(M)A(M)-idT (F=2'-F, M=2'-OMe, PEG=40 kDa branched PEG)) [SEQ ID NO: 33(18)] | 0.109 | 
SEQ ID NO: 9 (ssRNA, 2'-F pyrimidines (U, C); purines 2'-OH) RNA: GGGAACGAAGCGACAGACGUUCCAGCGUCUAAUACGUGAAUAACCUGAUCGUAGGGGGUUCAAGUACUGAGGACAGA |  | 0.22
